One molecule from PMC7610145, “Transglutaminase-Mediated Cross-Linking of Tropoelastin to Fibrillin Stabilises the Elastin Precursor Prior to Elastic Fibre Assembly” (Journal of Molecular Biology, 2020) can be followed below.

What all share (settings): both partners purified
Assay [1] has as its target T1, tropoelastin, SHELΔ26A (Synthetic Human Elastin without domain 26A) (human, UniProt P15502-2 27-724).
T1 construct: human tropoelastin without domain 26A; residues 27–724, the 60 kDa mature form of the secreted protein following removal of the signal peptide; the precursor counted on has 724 residues (isoform lacking domain 26A); contains K38 in domain 4; also called TE; full-length TE; source: expressed in bacteria, purified as described previously [23]
T1 sequence (looked up): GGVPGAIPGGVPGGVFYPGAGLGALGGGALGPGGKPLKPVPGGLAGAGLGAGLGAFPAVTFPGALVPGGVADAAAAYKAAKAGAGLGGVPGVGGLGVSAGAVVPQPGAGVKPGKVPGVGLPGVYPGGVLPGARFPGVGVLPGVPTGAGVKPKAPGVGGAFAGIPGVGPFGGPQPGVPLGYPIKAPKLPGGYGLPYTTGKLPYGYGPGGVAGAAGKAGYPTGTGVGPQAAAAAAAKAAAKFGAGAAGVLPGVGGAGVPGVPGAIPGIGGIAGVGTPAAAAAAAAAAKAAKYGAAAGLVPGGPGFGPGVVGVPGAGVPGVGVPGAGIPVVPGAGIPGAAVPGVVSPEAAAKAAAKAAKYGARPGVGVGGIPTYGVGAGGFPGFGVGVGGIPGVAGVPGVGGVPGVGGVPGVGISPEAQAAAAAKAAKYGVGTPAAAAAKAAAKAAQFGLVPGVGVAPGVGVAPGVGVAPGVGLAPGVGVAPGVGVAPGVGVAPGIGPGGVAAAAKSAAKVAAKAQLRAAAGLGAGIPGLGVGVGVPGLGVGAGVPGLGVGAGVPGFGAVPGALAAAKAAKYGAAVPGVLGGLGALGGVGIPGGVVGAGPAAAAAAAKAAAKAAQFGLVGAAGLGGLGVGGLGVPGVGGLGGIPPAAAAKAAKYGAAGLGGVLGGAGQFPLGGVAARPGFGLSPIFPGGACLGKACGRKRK
Briefly: SEC-MALS; TG2 cross-linked complex eluting at ~10 ml, 0.5 mg/ml, Superose 6, 10 mM Tris–HCl (pH 7.4), 150 mM NaCl.

For assay [2], the target named is T1, tropoelastin, SHELΔ26A (Synthetic Human …). Description: cross-linking; PF2 and TE incubated alone or together (1:1 or 2:1) at 16 °C for 2 h in 10 mM Hepes, 500 mM NaCl, 1 mM CaCl2 (pH 7.4), then with or without TG2 from guinea pig liver for a further 4 h; read by SDS-PAGE.
For assay [3] the target is unchanged. Description: SEC; PF2 and TE incubated with TG2 at a 1:1 ratio, separated on a Superose 6 column in 10 mM Hepes, 500 mM NaCl, 1 mM CaCl2 (pH 7.4); fractions on SDS-PAGE. A general note: SEC sorts molecules by how far they enter the pores of the column.

B1: fibrillin-1 PF2 fragment (domains TB1 to TB2, encoded by exons 9–17), natively glycosylated (domain or fragment)
chain: not shown
modifications: N-linked glycan at N448
notes: fibrillin-1, fragment encompassing domains TB1 to TB2, encoded by exons 9–17; includes Q669 (TB2); SAXS data on PF2, TE and the complex are deposited in the SASDB (SAS2517, 2518, 2519); also called fibrillin PF2; fibrillin PF2 construct
As to B1, the “stoichiometry N” value was ~1 PF2:TE in assay [1] and 1 PF2:TE in assay [2]. Moreover, in assay [3], the “stoichiometry of the larger species” value was 2 copies of each (2:2).
